Data as given in PMC10177866, “Computational Insights and In Silico Characterization of a Novel Mini-Lipoxygenase from Nostoc Sphaeroides and Its Application in the Quality Improvement of Steamed Bread” (International Journal of Molecular Sciences, 2023).
Blank lines part the entries; values can stand above or below the molecule they belong to.

Assays:
[1] = target: T1, NsLOX (Nostoc sphaeroides, UniProt A0A5P8W1C8); assay: absorbance at […] nm, Lineweaver-Burk; format: biochemical; settings: optimum assay conditions: 20 mM Tris-HCl pH 8.0, 15 °C, substrate 20-100 μM
T1 construct: gene GXM_03308; full length, 455 residues (52 kDa) plus 2 kDa His tag from pET-28a(+) NdeI/XhoI, tag kept; codon-optimised synthetic gene; E. coli BL21(DE3); Ni-NTA; about 54 kDa; C-terminal Ile455; no N-terminal PLAT domain
T1 sequence (A0A5P8W1C8 1-455): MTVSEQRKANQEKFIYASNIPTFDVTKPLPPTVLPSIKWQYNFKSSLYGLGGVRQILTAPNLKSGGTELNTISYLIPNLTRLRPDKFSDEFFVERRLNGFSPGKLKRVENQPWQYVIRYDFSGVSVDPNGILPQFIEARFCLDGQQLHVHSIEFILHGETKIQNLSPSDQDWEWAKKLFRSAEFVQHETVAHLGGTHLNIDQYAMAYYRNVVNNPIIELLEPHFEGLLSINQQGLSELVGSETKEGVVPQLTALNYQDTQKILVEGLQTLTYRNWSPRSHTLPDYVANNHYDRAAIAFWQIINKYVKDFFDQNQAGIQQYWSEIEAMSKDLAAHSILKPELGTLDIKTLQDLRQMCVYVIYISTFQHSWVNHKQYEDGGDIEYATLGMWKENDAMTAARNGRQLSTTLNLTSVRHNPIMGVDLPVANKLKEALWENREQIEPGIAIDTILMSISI

[2] = substrate: CCCCC/C=C\C/C=C\C/C=C\C/C=C\CCCC(=O)O; assay: purified protein; format: biochemical, Nostoc sphaeroides; settings: optimum assay conditions: 20 mM Tris-HCl pH 8.0, 15 °C, substrate 20-100 μM

Km [1]: 19.5 ± 1.24 µM
Molecule: CCCCC/C=C\C/C=C\CCCCCCCC(=O)O [LA, Linoleic acid]

Km ([1]; Km above tested substrate range): 151 ± 6.39 µM
Molecule: CC/C=C\C/C=C\C/C=C\CCCCCCCC(=O)O [ALA, α-Linolenic acid]

B1: NsLOX (Nostoc sphaeroides CCNUC1) (protein)
chain: MTVSEQRKANQEKFIYASNIPTFDVTKPLPPTVLPSIKWQYNFKSSLYGLGGVRQILTAPNLKSGGTELNTISYLIPNLTRLRPDKFSDEFFVERRLNGFSPGKLKRVENQPWQYVIRYDFSGVSVDPNGILPQFIEARFCLDGQQLHVHSIEFILHGETKIQNLSPSDQDWEWAKKLFRSAEFVQHETVAHLGGTHLNIDQYAMAYYRNVVNNPIIELLEPHFEGLLSINQQGLSELVGSETKEGVVPQLTALNYQDTQKILVEGLQTLTYRNWSPRSHTLPDYVANNHYDRAAIAFWQIINKYVKDFFDQNQAGIQQYWSEIEAMSKDLAAHSILKPELGTLDIKTLQDLRQMCVYVIYISTFQHSWVNHKQYEDGGDIEYATLGMWKENDAMTAARNGRQLSTTLNLTSVRHNPIMGVDLPVANKLKEALWENREQIEPGIAIDTILMSISI
notes: full length, 455 residues (52 kDa) plus 2 kDa His tag from pET-28a(+) NdeI/XhoI, tag kept; codon-optimised synthetic gene; E. coli BL21(DE3); Ni-NTA; about 54 kDa; C-terminal Ile455; no N-terminal PLAT domain
Km [2]: 571.22 ± 26.88 µM | Vmax [2]: 30.6 µM/min | kcat [2]: 7300 ± 145 s⁻¹ | kcat/Km [2]: 1.28e+07 M⁻¹ s⁻¹
